{
  "source": "patent US5688911A",
  "about": "“Trk neurotrophin binding motifs” (priority 1995, dated 1997)",
  "molecules": {"B1": {"name": "BDNF: Brain-derived neurotrophic factor, a neurotrophin; iodinated form in binding studies (protein, UniProt P23560 19-247, looked up)", "Neurotrophic factor BDNF …": "APMKEANIRGQGGLAYPGVRTHGTLESVNGPKAGSRGLTSLADTFEHVIEELLDEDQKVRPNEENNKDADLYTSRVMLSSQVPLEPPLLFLLEEYKNYLDAANMSMRVRRHSDPARRGELSVCDSISEWVTAADKKTAVDMSGGTVTVLEKVPVSKGQLKQYFYETKCNPMGYTKEGCRGIDKRHWNSQCRTTQSYVRALTMDSKKRIGWRFIRIDTSCVCTLTIKRGR", "modifications": "125I label"}},
  "key": {"rat TrkB": {"target": "T1, rat TrkB (Rattus norvegicus, UniProt Q63604)", "T1 construct": "host or cells: mouse NIH 3T3 fibroblasts (transfected)", "T1 sequence (Q63604 32-821)": "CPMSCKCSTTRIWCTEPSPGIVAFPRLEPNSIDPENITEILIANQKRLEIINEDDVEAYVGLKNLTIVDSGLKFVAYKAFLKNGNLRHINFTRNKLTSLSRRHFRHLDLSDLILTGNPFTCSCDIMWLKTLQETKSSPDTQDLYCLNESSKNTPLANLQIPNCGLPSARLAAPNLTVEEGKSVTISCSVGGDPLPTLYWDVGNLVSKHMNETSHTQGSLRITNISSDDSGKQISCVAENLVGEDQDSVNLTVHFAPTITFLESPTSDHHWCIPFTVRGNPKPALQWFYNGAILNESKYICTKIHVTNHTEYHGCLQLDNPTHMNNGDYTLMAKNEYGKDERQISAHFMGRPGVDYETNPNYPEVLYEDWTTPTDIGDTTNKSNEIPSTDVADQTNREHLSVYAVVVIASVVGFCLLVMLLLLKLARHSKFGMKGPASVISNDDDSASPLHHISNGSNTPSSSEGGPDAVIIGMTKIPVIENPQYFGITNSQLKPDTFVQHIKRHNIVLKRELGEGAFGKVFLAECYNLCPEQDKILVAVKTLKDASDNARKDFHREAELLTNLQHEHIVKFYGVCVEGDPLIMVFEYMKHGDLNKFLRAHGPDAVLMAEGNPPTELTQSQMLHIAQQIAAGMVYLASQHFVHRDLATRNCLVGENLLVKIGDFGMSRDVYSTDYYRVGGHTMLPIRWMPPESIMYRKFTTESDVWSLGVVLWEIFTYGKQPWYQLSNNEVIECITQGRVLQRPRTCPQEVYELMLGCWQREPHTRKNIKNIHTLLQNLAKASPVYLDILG", "conditions": "mouse NIH 3T3 fibroblasts expressing rat TrkB; cited from earlier work"}, "TrkB receptors": {"target": "TrkB receptors", "conditions": "non-neuronal cells ectopically expressing TrkB; read-out: affinities; cited from earlier work"}, "NT-4": {"target": "T2, NT-4 (Xenopus laevis, UniProt P24727)", "T2 sequence (P24727 114-236)": "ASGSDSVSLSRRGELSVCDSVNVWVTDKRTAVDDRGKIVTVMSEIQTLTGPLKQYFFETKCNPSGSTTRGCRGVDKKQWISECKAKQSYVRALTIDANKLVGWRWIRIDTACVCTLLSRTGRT", "test": "Qualitative binding assay, receptor affinity, 125I-NT-4", "design": "key to 125I-Neurotrophin NTA binding (qualitative): +neurotrophin binding; -no neurotrophin binding detectible"}, "NGF": {"target": "T3, NGF (Mus musculus, UniProt P01139)", "T3 construct": "Mouse submaxillary gland NGF-β, was purchased from Sigma Immuno Chemicals; purchased Amersham (125I-NGFβ); Sigma Immuno Chemicals (unlabelled NGF-β); host or cells: mouse submaxillary gland", "T3 sequence (P01139 122-241)": "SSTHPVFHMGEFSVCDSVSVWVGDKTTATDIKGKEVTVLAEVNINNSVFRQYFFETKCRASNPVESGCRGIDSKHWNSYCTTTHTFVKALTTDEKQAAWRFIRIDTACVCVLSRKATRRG", "test": "Qualitative binding assay, receptor affinity, 125I-NGF", "design": "key: +neurotrophin binding; -no neurotrophin binding detectible", "conditions": "Table 2"}, "NT-3": {"target": "T4, NT-3 (Mus musculus, UniProt P20181)", "T4 sequence (P20181 140-258)": "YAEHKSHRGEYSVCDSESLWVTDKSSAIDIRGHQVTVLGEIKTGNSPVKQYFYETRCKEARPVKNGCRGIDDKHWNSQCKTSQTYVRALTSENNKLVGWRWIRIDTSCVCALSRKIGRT", "test": "Qualitative binding assay, receptor affinity, 125I-NT-3", "design": "key: A \"+\" indicates binding of the neurotrophin in a qualitative binding assay using receptor affinity columns (no Kd determined); A \"-\" indicates that no binding of the neurotrophin to the respective receptor module could be detected"}, "BDNF": {"target": "T5, BDNF (Mus musculus, UniProt P21237)", "T5 sequence (P21237 131-249)": "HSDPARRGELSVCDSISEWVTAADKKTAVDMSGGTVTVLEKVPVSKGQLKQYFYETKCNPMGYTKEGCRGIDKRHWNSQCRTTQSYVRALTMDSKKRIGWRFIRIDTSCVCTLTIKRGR", "test": "Qualitative binding assay, receptor affinity, 125I-BDNF", "design": "key: A \"+\" indicates binding of the neurotrophin in a qualitative binding assay using receptor affinity columns (no Kd determined); A \"-\" indicates that no binding of the neurotrophin to the respective receptor module could be detected"}},
  "note": "No end group written: not given here.",
  "data": [
    {"molecule": "NT-3: neurotrophin 3; iodinated form in binding studies", "values": [
      {"measurement": "Kd", "setting": "rat TrkB", "value": "~1.3", "unit": "nM"},
      {"measurement": "Kd", "setting": "TrkB receptors", "value": "~1", "unit": "nM"}
    ]},
    {"molecule": "TIKNSGLRSIQPRAFAKNPHLRYI (SEQ ID NO:3) (TIKNSGLRSIQPRAFAKNPHLRYI) [LRM2 of TrkC, 24 amino acid second leucine rich motif of TrkC]", "values": [
      {"measurement": "binding of neurotrophin-4", "setting": "NT-4; data not shown", "value": "found to bind neurotrophin-4"}
    ]},
    {"molecule": "TIVDSGLKFVAYKAFLKNGNLRHI (SEQ ID NO: 5) [TrkB L2]", "values": [
      {"measurement": "125I-Neurotrophin NGF binding (qualitative)", "setting": "NGF", "value": "-"},
      {"measurement": "125I-Neurotrophin NTA binding (qualitative)", "setting": "NT-4; Table 2", "value": "+"}
    ]},
    {"molecule": "TIVKSGLRFVAPDAFHFTPRLSHL (SEQ ID NO: 4) (TIVKSGLRFVAPDAFHFTPRLSHL; also: MBP fusion partner) [TrkA L2, isolated 24 amino acid second leucine-rich motif of rat TrkA (Thr97-Leu120), MBP fusion]", "values": [
      {"measurement": "NT-3 binding (qualitative)", "setting": "NT-3", "value": "-"},
      {"measurement": "BDNF binding (qualitative)", "setting": "BDNF", "value": "-"}
    ]},
    {"molecule": "B1", "values": [
      {"measurement": "Kd", "setting": "rat TrkB", "value": "~1.8", "unit": "nM"},
      {"measurement": "Kd", "setting": "TrkB receptors", "value": "~1", "unit": "nM"}
    ]}
  ]
}
